Measured values taken from patent publication US10124035B2, “DISC-1 pathway activators in the control of neurogenesis” (Massachusetts Institute of Technology, priority 2008, dated 2018).
Entries after “also recorded” stand apart in the source; their conditions may differ. Blank lines part the entries; values can stand above or below the molecule they belong to.

Tests used:
[1] = system: TCF reporter in 293T cells; assay: TCF reporter activity in DISC1 knockdown 293T cells with Wnt3a conditional medium; assay type: cell-based; details: 16 hours
Protocol: Primary neural stem cells from E14 brains were infected with control or DISC1 shRNA lentiviruses. 48 hours after to transduction, cells were treated with vehicle or SB-216763 (5 μM) for 16 hours and then pulsed with 10 μM BrdU for 2 hours. Shown is percentage of GFP and BrdU double positive cells to total GFP positive cells (n=3, p<0.05). b. […] 1.5 μg of vector or WT-DISC1 was cotransfected with 0.5 μg control or DISC1 shRNA-2, 0.1 μg TCF reporter, and 10 ng pRL-TK vector into 293T cells. 48 hours after transfection, Wnt3a conditional medium with vehicle, SB-216763, or AR-A104418 was added for another 16 hours.
(§1) • Mice. Swiss Webster pregnant female mice were purchased from Taconic (Hudson, N.Y.). • Cell Culture. AHPs were kindly provided by Dr. Gage (Lie, D. C. et al. Wnt signaling to regulates adult hippocampal neurogenesis. Nature 437, 1370-5 (2005)) and cultured under conditions described previously (Palmer, T. D., Takahashi, J. & Gage, F. H. The adult rat hippocampus contains primordial neural stem cells. Mol Cell Neurosci 8, 389-404 (1997)). Primary neural progenitors were isolated from E14 mouse embryos and cultured as described previously (Sanada, K. & Tsai, L. H. G protein betagamma subunits and AGS3 control spindle orientation and asymmetric cell fate of cerebral cortical progenitors. Cell 122, 119-31 (2005)). N2a and 293T cells were cultured in DMEM medium containing 10% FBS, L-glutamine, and penicillin/streptomycin. Wnt3a expressing L cells and untransfected L cells were obtained from ATCC (Manassas, Va.). Wnt3a conditional medium was produced according to the ATCC protocol. To induce AHP differentiation, FGF2 was removed from the culture medium and 1 μM retinoic acid/1% FBS was added to the medium for 4 days. • Reagents. Recombinant Wnt3a protein was obtained from Chemicon (Rosemont, Ill.). FGF2 was obtained from PeproTech (Rocky Hill, N.J.). Recombinant GST-GSK3β was obtained from Active Motif (Carlsbad, Calif.). Recombinant GST-β-catenin and GST-axin were obtained from Millipore (Billerica, Mass.). […]

GSK3β = target: T1, GSK3β (Homo sapiens, UniProt P49841); assay: GSK3β in vitro kinase assay (β-catenin/axin phosphorylation, Y216 autophosphorylation); assay type: biochemical; details: for inhibition of GSK3β activity by DISC1 fragments: no single concentration, dose dependence, rank
T1 construct: GST; purchased Active Motif (Carlsbad, Calif.)
Excerpt: • Mice. Swiss Webster pregnant female mice were purchased from Taconic (Hudson, N.Y.). • Cell Culture. AHPs were kindly provided by Dr. Gage (Lie, D. C. et al. Wnt signaling to regulates adult hippocampal neurogenesis. Nature 437, 1370-5 (2005)) and cultured under conditions described previously (Palmer, T. D., Takahashi, J. & Gage, F. H. The adult rat hippocampus contains primordial neural stem cells. Mol Cell Neurosci 8, 389-404 (1997)). Primary neural progenitors were isolated from E14 mouse embryos and cultured as described previously (Sanada, K. & Tsai, L. H. G protein betagamma subunits and AGS3 control spindle orientation and asymmetric cell fate of cerebral cortical progenitors. Cell 122, 119-31 (2005)). N2a and 293T cells were cultured in DMEM medium containing 10% FBS, L-glutamine, and penicillin/streptomycin. Wnt3a expressing L cells and untransfected L cells were obtained from ATCC (Manassas, Va.). Wnt3a conditional medium was produced according to the ATCC protocol. To induce AHP differentiation, FGF2 was removed from the culture medium and 1 μM retinoic acid/1% FBS was added to the medium for 4 days. • Reagents. Recombinant Wnt3a protein was obtained from Chemicon (Rosemont, Ill.). FGF2 was obtained from PeproTech (Rocky Hill, N.J.). Recombinant GST-GSK3β was obtained from Active Motif (Carlsbad, Calif.). Recombinant GST-β-catenin and GST-axin were obtained from Millipore (Billerica, Mass.). The GSK313 inhibitor, SB-216763, AR-A104418 and His-GSK3β, were obtained from Sigma-Aldrich (Sigma-Aldrich, St. Louis, Mo.). L803-MTS was obtained from Calbiochem (San Diego, Calif.). GST-AKT1 was obtained from Cell Signaling (Beverly, Mass.). GST-CASK-1 (CASK fragment from 316-415aa), GST-CASK-2 (CASK fragment from 777-974aa), and GST-p25 proteins were kindly provided by Dr. B. A. Samuels. Mouse DISC1 peptidel (40-78aa: GYMRSTAGSG IGFLSPAVGMPHPSSAG LTGQQSQHSQS; SEQ ID NO: 1) and Mouse DISC1 peptide 2 (195-238aa, […] GERGEAEGCLPSREAE; SEQ ID NO: 2) were synthesized by Chi Scientific (Maynard, Mass.). • Antibodies. The primary antibodies used in this study were the following: rabbit anti-DISC1 C-terminal antibody, mouse and rabbit anti-GFP antibodies (Invitrogen, Carlsbad, Calif.); affinity purified rabbit anti-DISC1 antibody (Novus, Littleton, Colo.) for immunohistochemistry; mouse anti-FLAG and mouse anti-Actin antibody; mouse anti-GSK3β antibody, mouse anti-β-catenin antibody, mouse anti-pY216 GSK3β antibody, and mouse anti-nestin antibody (BD Biosciences, San Diego, Calif.); rabbit anti-[…] β-catenin antibody, rabbit anti-pS9 GSK3β antibody, and mouse anti-cyclin to D1 antibody (Cell Signaling); mouse anti-Dv12 antibody, mouse anti-HA antibody, mouse anti-GST antibody, mouse anti-ubiquitin antibody, and rabbit anti-β-catenin antibody (Santa Cruz, Santa Cruz, Calif.); mouse Tuj-1 antibody (BABCO, Harrisburg, Pa.); mouse anti-BrdU antibody (DakoCytomation, Glostrup, Denmark); guinea pig anti-doublecortin antibody (Chemicon, Rosemont, Ill.); chicken anti-GFP antibody (Ayes Labs, Tigard, Oreg.); rabbit anti-pS10 Histone H3 antibody (Upstate, Lake Placid, N.Y.). • Constructs. The sequences for shRNAs targeting DISC1 are as follows: control shRNA: 5′-CGGCTGAAACAAGAGTTGG-3′ (SEQ ID NO:3); DISC1 shRNA-1: 5′-GGCAAACACTGTGA AGT GC-3′ (SEQ ID NO:4); DISC1 shRNA-2: 5′-[…]-3′ (SEQ ID NO:5)(Kamiya A. et al. A schizophrenia-associated mutation of DISC1 perturbs cerebral cortex development. Nat. Cell Biol 7, 1167-78 (2005)). DISC1 shRNA-1 recognizes both rat and mouse DISC1. […]

His-GSK3β = target: T2, His-GSK3β (Homo sapiens, UniProt P49841); assay: In vitro association (GST pull-down) with purified His-GSK3β; assay type: binding; details: GST-tagged DISC1 fragments, in vitro association assay
T2 construct: purchased Sigma-Aldrich (St. Louis, Mo.)
Excerpt: as §1, with “Calif.).” for “Calif.). Recombinant GST-β-catenin and GST-axin were obtained from Millipore (Billerica, Mass.).”

[2] = system: adult hippocampal progenitor (AHP) cells; assay: AHP cell proliferation, BrdU labeling and mitotic index; assay type: cell-based; details: Wnt3a 200 ng/ml
Excerpt: as §1, with “Calif.).” for “Calif.). Recombinant GST-β-catenin and GST-axin were obtained from Millipore (Billerica, Mass.).”

T1 sequence (P49841 whole entry, the tested form may be a part): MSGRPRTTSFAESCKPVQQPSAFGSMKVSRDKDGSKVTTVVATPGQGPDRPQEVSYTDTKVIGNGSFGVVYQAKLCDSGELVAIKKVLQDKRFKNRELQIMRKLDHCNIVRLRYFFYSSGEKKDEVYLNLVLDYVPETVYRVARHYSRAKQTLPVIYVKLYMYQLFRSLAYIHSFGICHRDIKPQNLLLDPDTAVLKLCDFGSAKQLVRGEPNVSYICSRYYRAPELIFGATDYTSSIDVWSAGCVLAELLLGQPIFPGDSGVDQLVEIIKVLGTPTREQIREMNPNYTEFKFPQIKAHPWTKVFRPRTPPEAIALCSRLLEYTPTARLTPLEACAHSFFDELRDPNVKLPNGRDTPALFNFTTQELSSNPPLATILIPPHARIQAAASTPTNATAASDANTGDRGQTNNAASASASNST
T2 sequence (P49841 whole entry, the tested form may be a part): as above

Molecule: COc1ccc(CNC(=O)Nc2ncc([N+](=O)[O-])s2)cc1 [AR-A014418]
TCF reporter activity in DISC1 knockdown cells [1]: rescued TCF activity in DISC1 knockdown cells to control levels | TCF reporter activity in DISC1 knockdown cells ([1]; listed as AR-A104418): rescues the TCF activation defect caused by DISC1 knockdown

B2: Wnt3a: Recombinant Wnt3a protein obtained from Chemicon (protein, UniProt P56704 19-352, looked up)
Protein Wnt-3a: SYPIWWSLAVGPQYSSLGSQPILCASIPGLVPKQLRFCRNYVEIMPSVAEGIKIGIQECQHQFRGRRWNCTTVHDSLAIFGPVLDKATRESAFVHAIASAGVAFAVTRSCAEGTAAICGCSSRHQGSPGKGWKWGGCSEDIEFGGMVSREFADARENRPDARSAMNRHNNEAGRQAIASHMHLKCKCHGLSGSCEVKTCWWSQPDFRAIGDFLKDKYDSASEMVVEKHRESRGWVETLRPRYTYFKVPTERDLVYYEASPNFCEPNPETGSFGTRDRTCNVSSHGIDGCDLLCCGRGHNARAERRREKCRCVFHWCCYVSCQECTRVYDVHTCK
proliferation of AHPs [2]: significantly stimulated proliferation of AHPs

Continued, in another order:

inhibition of GSK3β activity by DISC1 fragments (GSK3β): able to inhibit GSK3 activity
B1: DISC1 fragment 356-595: GST-tagged mouse DISC1 protein fragment, amino acids 356-595 (protein, UniProt Q811T9 356-595, looked up, fragment)
chain: LKLQKCQEKVVEDGDYDTAETLRQRLEELEQEKGRLSWALPSQQPALRSFLGYLAAQIQVALHGATQRAGSDDPEAPLEGQLRTTAQDSLPASITRRDWLIREKQRLQKEIEALQARMSALEAKEKRLSQELEEQEVLLRWPGCDLMALVAQMSPGQLQEVSKALGETLTSANQAPFQVEPPETLRSLRERTKSLNLAVRELTAQVCSGEKLCSSLRRRLSDLDTRLPALLEAKMLALSG
modifications: GST tag
inhibition of GSK3β autophosphorylation (Y216) (GSK3β; GST-DISC1 fragments at 2 μM): started to inhibit GSK3β autophosphorylation | interaction with purified His-GSK3β (His-GSK3β): strong interactions; also recorded: directly associate with purified GSK3β; also recorded: interacts directly

inhibition of GSK3β Y216 phosphorylation (GSK3β; at 0.1 μM): no inhibition | inhibition of GSK3β Y216 phosphorylation (GSK3β; at 1 μM): plateaued
B3: DISC1 fragment 1-220: GST-tagged mouse DISC1 protein fragment, amino acids 1-220 (protein)
chain: MQGGGPRGAPIHSPSHGADSGHGLPPAVAPQRRRLTRRPGYMRSTAGSGIGFLSPAVGMPHPSSAGLTGQQSQHSQSKAGQCGLDPGSHCQASLVGKPFLKSSLVPAVASEGHLHPAQRSMRKRPVHFAVHSKNDSRQSERLTGSFKPGDSGFWQELLSSDSFKSLAPSLDAPWNKGSRGLKTVKPLASPALNGPADIASLPGFQDTFTSSFSFIQLSLG
modifications: left off: a dimerising Fc or GST
inhibition of β-catenin, axin and GSK3β phosphorylation (GSK3β; GST fusion proteins at 0.5 μM): potently inhibited β-catenin, axin and GSK3β phosphorylation | inhibition of GSK3β activity by DISC1 fragments (GSK3β): able to inhibit GSK3 activity; also recorded: most potent in inhibiting GSK3 activity; also recorded: most potent inhibitory activity on GSK3β; also recorded: dose-dependent | interaction with purified His-GSK3β (His-GSK3β): strong interactions; also recorded: directly associate with purified GSK3β; also recorded: interacts directly
